Coagulation time (recalcification time in FX-deficient plasma) data for two substances are collected here from patent US6670147.

Assay [1] addresses nonmutated (wild-type) FX (UniProt P00742). Nature of the assay: cell-based or functional assay.
Assay [2] deals with mutated factor X (human FX in which amino acid 194 has been mutated from Arg to Tyr) (human) (UniProt P00742). Nature of the assay: cell-based or functional assay.

Take Russel's viper venom (RVV): in assay [1], the coagulation time (recalcification time in FX-deficient plasma) was determined as 50 s. “prostate-specific antigen (PSA) (from UniProt P07288 25-261) (enzyme)”: the coagulation time (recalcification time in FX-deficient plasma) in assay [2] is 50 s.
